Tests used:
[1] = biological target: T1, human FcRH5 (full-length, on cells) (human, UniProt Q96RD9 16-977); test: cell-based or functional assay
T1 sequence: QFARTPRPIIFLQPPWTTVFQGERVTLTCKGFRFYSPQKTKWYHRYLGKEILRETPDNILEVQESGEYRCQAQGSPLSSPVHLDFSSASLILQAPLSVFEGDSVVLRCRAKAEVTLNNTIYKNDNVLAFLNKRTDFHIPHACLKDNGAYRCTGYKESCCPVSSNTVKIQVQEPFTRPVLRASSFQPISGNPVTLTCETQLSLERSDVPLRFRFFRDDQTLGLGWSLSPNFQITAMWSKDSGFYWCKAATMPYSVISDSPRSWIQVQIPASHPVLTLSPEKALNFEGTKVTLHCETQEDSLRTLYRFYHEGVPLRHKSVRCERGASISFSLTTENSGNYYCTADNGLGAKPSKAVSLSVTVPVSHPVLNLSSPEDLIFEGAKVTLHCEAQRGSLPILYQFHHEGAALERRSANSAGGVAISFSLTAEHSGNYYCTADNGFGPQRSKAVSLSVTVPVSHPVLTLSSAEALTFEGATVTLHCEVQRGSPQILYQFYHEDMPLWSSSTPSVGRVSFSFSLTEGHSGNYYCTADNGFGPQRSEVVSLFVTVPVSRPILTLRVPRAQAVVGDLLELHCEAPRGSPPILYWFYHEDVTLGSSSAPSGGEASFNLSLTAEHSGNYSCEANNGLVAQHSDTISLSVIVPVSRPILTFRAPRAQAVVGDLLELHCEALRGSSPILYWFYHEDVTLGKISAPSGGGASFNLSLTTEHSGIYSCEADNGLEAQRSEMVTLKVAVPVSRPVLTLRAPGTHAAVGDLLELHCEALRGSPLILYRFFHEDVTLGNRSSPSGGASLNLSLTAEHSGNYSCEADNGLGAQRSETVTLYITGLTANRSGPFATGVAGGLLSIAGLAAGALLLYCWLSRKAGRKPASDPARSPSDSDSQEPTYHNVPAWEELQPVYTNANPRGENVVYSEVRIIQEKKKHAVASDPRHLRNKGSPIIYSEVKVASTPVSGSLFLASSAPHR

[2] = biological target: T2, human FcRH2 (full-length, on SVT2 cells) (human, UniProt Q96LA5 20-508); test: flow cytometry on SVT2-FcRH2 cells, PE-labelled secondary
T2 construct: whole, on cells; also called SVT2-FcRH2
T2 sequence (looked up): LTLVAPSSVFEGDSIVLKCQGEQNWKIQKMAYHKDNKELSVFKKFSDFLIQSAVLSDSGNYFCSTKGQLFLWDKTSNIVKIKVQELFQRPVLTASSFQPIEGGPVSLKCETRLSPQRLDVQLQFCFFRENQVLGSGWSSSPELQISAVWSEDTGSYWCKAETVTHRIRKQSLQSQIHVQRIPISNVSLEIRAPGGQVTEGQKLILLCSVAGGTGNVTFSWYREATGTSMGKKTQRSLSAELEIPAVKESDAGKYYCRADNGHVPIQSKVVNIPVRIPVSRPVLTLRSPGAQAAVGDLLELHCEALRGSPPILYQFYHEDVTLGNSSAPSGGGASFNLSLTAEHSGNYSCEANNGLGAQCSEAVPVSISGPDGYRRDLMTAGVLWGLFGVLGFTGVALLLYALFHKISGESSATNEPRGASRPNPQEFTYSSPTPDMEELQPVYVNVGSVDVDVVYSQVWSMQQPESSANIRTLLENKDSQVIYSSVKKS
Description: Human FcRH5, cyno FcRH5, human FcRH1, FcRH2, FcRH3, and FcRH4 transfected mouse SVT2 cells were used to test binding and cross-reactivity of FcRH5 TDBs. The method was carried out as follows. Cultured SVT2 cells were lifted using non-enzyme cell dissociation buffer (Sigma, #C5914). 1×10⁵ cells were suspended in 100 μL and incubated with FcRH5 TDBs at 3 μg/ml. […] Cells were washed twice with FACS buffer before flow cytometry analysis was carried out on a FACSCalibur.

[3] = biological target: T3, human FcRH5 protein fragment (soluble) (human, UniProt Q96RD9 16-851); test: SPR (BIACORE), TDB captured as ligand, Hu FcRH5 as analyte, 25 °C, 1:1 binding model
T3 construct: whole entry named; also called soluble human FcRH5; Human FcRH5 (BIACORE analyte)
T3 sequence: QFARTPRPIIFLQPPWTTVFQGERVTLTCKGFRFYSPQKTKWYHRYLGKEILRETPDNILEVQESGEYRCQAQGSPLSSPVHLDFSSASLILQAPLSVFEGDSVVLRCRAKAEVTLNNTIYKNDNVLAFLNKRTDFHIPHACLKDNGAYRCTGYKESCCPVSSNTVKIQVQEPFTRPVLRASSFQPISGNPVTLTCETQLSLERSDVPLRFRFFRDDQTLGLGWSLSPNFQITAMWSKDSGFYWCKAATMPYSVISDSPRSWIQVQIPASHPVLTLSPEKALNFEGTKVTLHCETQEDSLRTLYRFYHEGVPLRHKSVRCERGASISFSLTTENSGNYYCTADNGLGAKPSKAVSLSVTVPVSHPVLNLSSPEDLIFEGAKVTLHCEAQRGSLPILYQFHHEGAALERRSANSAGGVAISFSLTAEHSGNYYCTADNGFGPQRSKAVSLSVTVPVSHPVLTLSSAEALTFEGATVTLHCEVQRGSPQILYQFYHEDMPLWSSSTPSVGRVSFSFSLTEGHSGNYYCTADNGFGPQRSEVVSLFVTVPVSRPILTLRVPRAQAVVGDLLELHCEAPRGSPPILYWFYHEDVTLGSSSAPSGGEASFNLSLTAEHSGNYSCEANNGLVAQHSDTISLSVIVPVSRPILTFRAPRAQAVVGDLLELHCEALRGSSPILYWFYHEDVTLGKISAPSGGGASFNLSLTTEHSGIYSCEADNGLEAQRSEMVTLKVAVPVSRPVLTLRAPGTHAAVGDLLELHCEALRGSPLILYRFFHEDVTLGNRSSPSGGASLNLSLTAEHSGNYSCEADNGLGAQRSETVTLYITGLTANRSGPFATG

binding result [2]: no binding
Kd [3]: 2.35 nM
koff [3]: 0.00104 s⁻¹
kon [3]: 441000 M⁻¹ s⁻¹
B1: 1G7.v85/38E4.v1 TDB (bispecific antibody, V domains shown)
VH 1: EVQLVESGPGLVKPSETLSLTCTVSGFSLTRFGVHWVRQPPGKGLEWLGVIWRGGSTDYNAAFVSRLTISKDNSKNQVSLKLSSVTAADTAVYYCSNHYYGSSDYALDNWGQGTLVTVSS
VL 1: DIQMTQSPSSLSASVGDRVTITCKASQDVRNLVVWFQQKPGKAPKLLIYSGSYRYSGVPSRFSGSGSGTDFTLTISSLQPEDFATYYCQQHYSPPYTFGQGTKVEIK
VH 2: EVQLVQSGAEVKKPGASVKVSCKASGFTFTSYYIHWVRQAPGQGLEWIGWIYPENDNTKYNEKFKDRVTITADTSTSTAYLELSSLRSEDTAVYYCARDGYSRYYFDYWGQGTLVTVSS
VL 2: DIVMTQSPDSLAVSLGERATINCKSSQSLLNSRTRKNYLAWYQQKPGQSPKLLIYWTSTRKSGVPDRFSGSGSGTDFTLTISSLQAEDVAVYYCKQSFILRTFGQGTKVEIK
notes: knob-into-hole TDB; also called 1G7.v85 TDB; 1G7.v85 (TDB format)
killing of 293-FcRH5-PD-L1 cells by primed CD8+ cells, TDB alone, EC50 [1]: 0.63 ng/mL
killing of 293-FcRH5-PD-L1 cells, with anti-PD-1 antibody (pembrolizumab), EC50 [1]: 0.4 ng/mL
killing of 293-FcRH5-PD-L1 cells, with anti-PD-L1 antibody, EC50 [1]: 0.4 ng/mL
killing of MOLP-2 cells, EC50 [1]: 0.058 nM
killing of SVT2-FcRH5 cells in DMSO, IC50 [1]: 0.006 nM
killing of SVT2-FcRH5 cells in buffer, IC50 [1]: 0.007 nM
killing of SVT2-FcRH5 cells with 0.1 µM Dex, IC50 [1]: 0.016 nM
killing of plasma cells (PCs), median EC50 [1]: 25 ng/mL
